From the supplement of paper PMC7877785
± gives the uncertainty stated by the source.

Test: self-splicing fitness, log relative to wild type (ln ratio); higher = more splicing; Tetrahymena group I intron in knt gene, E. coli kanamycin selection, DiMSum; sequences stand for … in CUCUCU…GGAGGGAAAAGUUAUCAGGCAUGCACCUGGUAGCUAGUCUUUAAACCAAUAGAUUGCAUCGGUUUAAAAGGCAAGACCGUCAAAUUGCGGGAAAGGGGUCAACAGCCGUUCAGUACCAAGUCUCAGGGGAAACUUUGAGAUGGCCUUGCAAAGGGUAUGGUAAUAAGCUGACGGACAUGGUCCUAACCACGCAGCCAAGUCCUAAGUCAACAGAUCUUCUGUUGAUAUGGAUGCAGUUCACAGACUAAAUGUCGGUCGGGGAAGAUGUAUUCUUCUCAUAAGAUAUAGUCGGACCUCUCCUUAAUGGGAGCUAGCGGAUGAAGUGAUGCAACACUGGAGCCGCUGGGAACUAAUUUGUAUGCGAAAGUAUAUUGAUUAGUUUUGGAGUACUCGUGGUCG
Summary of the method: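 A randomised library covering all eight P1ex-region intron nucleotides was built with the intron in the knt kanamycin-resistance gene on pET-22b(+) and held in E. coli BL21(DE3). Cells were grown overnight at 37°C or 30°C on LB agar, with or without 25 μg/mL kanamycin, plus 100 μg/mL carbenicillin, 50 μM IPTG and 0.2% rhamnose, and pooled colonies were amplicon-sequenced on an Illumina HiSeq 2500. DiMSum fitness is the error-weighted combination of wild-type-normalised replicate fold changes, kanamycin versus none.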

GACCAGCAAUAUUACGUAGG
self-splicing fitness (ln) (30 °C): -2.31 ± 0.075 | self-splicing fitness (ln) (37 °C): -1.62 ± 0.09

CCUUAGCAAUAUUACGAAGC
self-splicing fitness (ln) (30 °C): -3.24 ± 0.3 | self-splicing fitness (ln) (37 °C): -1.56 ± 0.32

UUCGAGCAAUAUUACGGUAC
self-splicing fitness (ln) (30 °C): -3.39 ± 0.27 | self-splicing fitness (ln) (37 °C): -2.62 ± 0.44

UGACAGCAAUAUUACGCCCC
self-splicing fitness (ln) (30 °C): -0.414 ± 0.17 | self-splicing fitness (ln) (37 °C): -0.391 ± 0.26

GCAAAGCAAUAUUACGGUCC
self-splicing fitness (ln) (30 °C): -1.75 ± 0.14 | self-splicing fitness (ln) (37 °C): -0.8 ± 0.15

AUUCAGCAAUAUUACGGAUC
self-splicing fitness (ln) (30 °C): -3.24 ± 0.11 | self-splicing fitness (ln) (37 °C): -2.53 ± 0.18

UUGGAGCAAUAUUACGUGUG
self-splicing fitness (ln) (30 °C): -3.71 ± 0.2 | self-splicing fitness (ln) (37 °C): -2.38 ± 0.14

GAACAGCAAUAUUACGGUAG
self-splicing fitness (ln) (30 °C): -2.81 ± 0.12 | self-splicing fitness (ln) (37 °C): -1.87 ± 0.14

UUGGAGCAAUAUUACGUACA
self-splicing fitness (ln) (37 °C): 0.204 ± 0.28

ACACAGCAAUAUUACGUGGG
self-splicing fitness (ln) (30 °C): -3.5 ± 0.098 | self-splicing fitness (ln) (37 °C): -1.88 ± 0.087

GAGAAGCAAUAUUACGGCCA
self-splicing fitness (ln) (30 °C): -0.417 ± 0.16 | self-splicing fitness (ln) (37 °C): -0.286 ± 0.17

GCAUAGCAAUAUUACGCGUG
self-splicing fitness (ln) (30 °C): -3.46 ± 0.2 | self-splicing fitness (ln) (37 °C): -2.64 ± 0.28

CACAAGCAAUAUUACGGGCG
self-splicing fitness (ln) (30 °C): -0.358 ± 0.06 | self-splicing fitness (ln) (37 °C): 0.319 ± 0.07

GUCUAGCAAUAUUACGGCAG
self-splicing fitness (ln) (37 °C): -1.72 ± 0.44

UAGCAGCAAUAUUACGUGUU
self-splicing fitness (ln) (30 °C): -3.4 ± 0.1 | self-splicing fitness (ln) (37 °C): -2.86 ± 0.15

GUGAAGCAAUAUUACGGUAG
self-splicing fitness (ln) (30 °C): -1.79 ± 0.087 | self-splicing fitness (ln) (37 °C): -0.687 ± 0.1

AGCGAGCAAUAUUACGACUA
self-splicing fitness (ln) (30 °C): -0.953 ± 0.37 | self-splicing fitness (ln) (37 °C): -1.03 ± 0.31

GUUUAGCAAUAUUACGACGU
self-splicing fitness (ln) (30 °C): -0.531 ± 0.1 | self-splicing fitness (ln) (37 °C): 0.347 ± 0.14

GACGAGCAAUAUUACGAGGG
self-splicing fitness (ln) (30 °C): -3.12 ± 0.25 | self-splicing fitness (ln) (37 °C): -2.97 ± 0.35

GUCAAGCAAUAUUACGCGUG
self-splicing fitness (ln) (30 °C): -2.92 ± 0.16 | self-splicing fitness (ln) (37 °C): -1.78 ± 0.16

CGUCAGCAAUAUUACGUUGG
self-splicing fitness (ln) (30 °C): -3.57 ± 0.11 | self-splicing fitness (ln) (37 °C): -2.78 ± 0.16

GUGUAGCAAUAUUACGGUAU
self-splicing fitness (ln) (30 °C): -2.35 ± 0.12 | self-splicing fitness (ln) (37 °C): -0.18 ± 0.12

GCGUAGCAAUAUUACGACAC
self-splicing fitness (ln) (30 °C): -0.714 ± 0.092 | self-splicing fitness (ln) (37 °C): -0.0138 ± 0.097

GCGGAGCAAUAUUACGAUUG
self-splicing fitness (ln) (30 °C): -3.31 ± 0.19 | self-splicing fitness (ln) (37 °C): -2.23 ± 0.24

UGCCAGCAAUAUUACGAAAC
self-splicing fitness (ln) (37 °C): -2.42 ± 0.23

AAUAAGCAAUAUUACGGCGC
self-splicing fitness (ln) (30 °C): 0.251 ± 0.12 | self-splicing fitness (ln) (37 °C): -0.478 ± 0.13

GAACAGCAAUAUUACGUACG
self-splicing fitness (ln) (30 °C): -0.821 ± 0.081 | self-splicing fitness (ln) (37 °C): -0.0209 ± 0.11

CACGAGCAAUAUUACGUCUC
self-splicing fitness (ln) (30 °C): -2.49 ± 0.27 | self-splicing fitness (ln) (37 °C): -3.63 ± 0.34

ACCCAGCAAUAUUACGCGAG
self-splicing fitness (ln) (30 °C): -1.63 ± 0.078 | self-splicing fitness (ln) (37 °C): -0.948 ± 0.1

AGCUAGCAAUAUUACGUCCA
self-splicing fitness (ln) (30 °C): -1.52 ± 0.12 | self-splicing fitness (ln) (37 °C): -0.378 ± 0.11

UAAUAGCAAUAUUACGCCUU
self-splicing fitness (ln) (30 °C): -3.48 ± 0.21 | self-splicing fitness (ln) (37 °C): -1 ± 0.14

AUUAAGCAAUAUUACGGCCG
self-splicing fitness (ln) (30 °C): -0.768 ± 0.12 | self-splicing fitness (ln) (37 °C): 0.0891 ± 0.15

CCUGAGCAAUAUUACGGACC
self-splicing fitness (ln) (37 °C): -3.02 ± 0.43

UGCUAGCAAUAUUACGAUGA
self-splicing fitness (ln) (30 °C): -1 ± 0.1 | self-splicing fitness (ln) (37 °C): -1.2 ± 0.09

AUUGAGCAAUAUUACGCCUC
self-splicing fitness (ln) (30 °C): -2.53 ± 0.48 | self-splicing fitness (ln) (37 °C): -1.27 ± 0.42

CGCGAGCAAUAUUACGACUC
self-splicing fitness (ln) (37 °C): -1.14 ± 0.31

AUCUAGCAAUAUUACGAAAG
self-splicing fitness (ln) (30 °C): -3.62 ± 0.27 | self-splicing fitness (ln) (37 °C): -2.15 ± 0.24

CGCGAGCAAUAUUACGUUAG
self-splicing fitness (ln) (30 °C): -3.74 ± 0.21 | self-splicing fitness (ln) (37 °C): -1.33 ± 0.18

UCUGAGCAAUAUUACGCCUG
self-splicing fitness (ln) (30 °C): -3.02 ± 0.18 | self-splicing fitness (ln) (37 °C): -2.18 ± 0.2

GGAAAGCAAUAUUACGGUGG
self-splicing fitness (ln) (30 °C): -1.84 ± 0.16 | self-splicing fitness (ln) (37 °C): -1.53 ± 0.16

AGAAAGCAAUAUUACGUCCA
self-splicing fitness (ln) (30 °C): -1.06 ± 0.1 | self-splicing fitness (ln) (37 °C): -0.056 ± 0.13

CGGUAGCAAUAUUACGUCUA
self-splicing fitness (ln) (30 °C): -0.754 ± 0.073 | self-splicing fitness (ln) (37 °C): -0.163 ± 0.081

AACGAGCAAUAUUACGUCUA
self-splicing fitness (ln) (30 °C): -2.06 ± 0.17 | self-splicing fitness (ln) (37 °C): -0.756 ± 0.12

CCAAAGCAAUAUUACGACUG
self-splicing fitness (ln) (30 °C): -0.588 ± 0.071 | self-splicing fitness (ln) (37 °C): -0.0799 ± 0.091

GGUCAGCAAUAUUACGGCUC
self-splicing fitness (ln) (30 °C): -2.39 ± 0.21 | self-splicing fitness (ln) (37 °C): -1.68 ± 0.3

UAUAAGCAAUAUUACGAAAG
self-splicing fitness (ln) (30 °C): -1.17 ± 0.13 | self-splicing fitness (ln) (37 °C): -2.44 ± 0.21

GGAAAGCAAUAUUACGAUUG
self-splicing fitness (ln) (30 °C): -3.56 ± 0.28 | self-splicing fitness (ln) (37 °C): -1.82 ± 0.23

GGGUAGCAAUAUUACGCACG
self-splicing fitness (ln) (30 °C): -2.15 ± 0.26 | self-splicing fitness (ln) (37 °C): 0.541 ± 0.23

CUUUAGCAAUAUUACGGUUA
self-splicing fitness (ln) (30 °C): -3.31 ± 0.28 | self-splicing fitness (ln) (37 °C): -3.19 ± 0.37
